{"source": "patent US20160009812A1", "about": "(University of Texas, published 2016)", "key": {"[1]": {"molecular_target": "vimentin-derived peptides (10, 12 and 15 aa peptides on the peptide microarray)", "assay": "peptide microarray; 84-1 at 0.2 ug/mL compared with 12-1 at 1 ug/mL"}, "[2]": {"molecular_target": "T1, cell-surface vimentin on canine circulating tumor cells (canine, UniProt A0A8C0N8E3 2-466)", "T1 construct": "also called CSV", "T1 sequence (A0A8C0N8E3 2-466 limits assumed)": "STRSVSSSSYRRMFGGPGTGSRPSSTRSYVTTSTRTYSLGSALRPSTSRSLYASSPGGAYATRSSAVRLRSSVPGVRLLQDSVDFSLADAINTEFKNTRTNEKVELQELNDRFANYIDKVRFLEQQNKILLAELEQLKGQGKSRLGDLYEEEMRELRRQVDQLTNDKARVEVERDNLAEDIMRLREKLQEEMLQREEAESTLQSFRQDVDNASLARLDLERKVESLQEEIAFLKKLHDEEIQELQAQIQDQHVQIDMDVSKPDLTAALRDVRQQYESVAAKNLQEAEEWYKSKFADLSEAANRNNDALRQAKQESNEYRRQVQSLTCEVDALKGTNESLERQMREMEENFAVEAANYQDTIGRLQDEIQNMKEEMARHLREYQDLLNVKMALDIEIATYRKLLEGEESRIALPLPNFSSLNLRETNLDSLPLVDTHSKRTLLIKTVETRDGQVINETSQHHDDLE", "assay": "isolation and confocal microscopy of CTC from canine blood"}, "[3]": {"molecular_target": "T2, cell-surface vimentin (CSV) on human cancer cells (human, UniProt P08670 2-466)", "T2 construct": "whole, on cells; Endogenous vimentin on the surface of non-permeabilized cancer cells", "T2 sequence (P08670 2-466)": "as the sequence (A0A8C0N8E3 2-466 limits assumed) above, with G20A, T26S, A59V, S200N, D238E, D250E, M257V, N316T, A411S counted along it", "assay": "screening on osteosarcoma cell lines with and without vimentin on the cell surface"}, "[4]": {"molecular_target": "T3, total (intracellular) vimentin of human cancer cells (human, UniProt P08670 2-466)", "T3 construct": "Endogenous protein in lysates or in permeabilized cells; also called total vimentin; cytoplasmic vimentin", "T3 sequence (P08670 2-466 limits assumed)": "as the sequence (A0A8C0N8E3 2-466 limits assumed) above, with G20A, T26S, A59V, S200N, D238E, D250E, M257V, N316T, A411S counted along it", "assay": "confocal microscopy, intracellular staining"}, "[5]": {"molecular_target": "T4, cell-surface vimentin on mouse cancer cells (LM8) (mouse, UniProt P20152 2-466)", "T4 construct": "whole, on cells; also called CSV", "T4 sequence (P20152 2-466)": "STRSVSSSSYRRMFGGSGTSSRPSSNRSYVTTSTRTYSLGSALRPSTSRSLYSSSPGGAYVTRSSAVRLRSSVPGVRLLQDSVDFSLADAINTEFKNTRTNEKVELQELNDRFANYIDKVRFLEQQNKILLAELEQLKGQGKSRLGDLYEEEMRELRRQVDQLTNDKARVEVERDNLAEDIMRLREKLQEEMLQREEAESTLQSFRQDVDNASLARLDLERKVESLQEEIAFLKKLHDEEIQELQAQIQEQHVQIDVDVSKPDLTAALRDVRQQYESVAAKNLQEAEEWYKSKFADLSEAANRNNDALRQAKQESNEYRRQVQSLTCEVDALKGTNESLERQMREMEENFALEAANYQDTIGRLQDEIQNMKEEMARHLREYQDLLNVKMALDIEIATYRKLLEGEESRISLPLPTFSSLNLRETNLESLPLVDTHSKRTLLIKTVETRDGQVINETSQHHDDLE", "assay": "immunofluorescence staining of mouse LM8 cells spiked into blood", "protocol": "FIG. 2B: Detection of single cell spiked into blood using fluorescence microscopy. Single LM8 cell was isolated using serial dilution and spot analysis and spiked into 1 ml of blood. After RBC lysis, mononucleated cell population was stained for 84-1 mAb and AlexaFluor-488 secondary antibody to detect CSV positive cells. […] FIG. 2C: Isolation of single cell from whole blood. Single cell spiked into whole blood was isolated using EasySep based 84-1 positive and CD45 negative selection. This single cell was observable on the culture dish 2 hr after incubation at 37° C. FIG. 2D: Micrographs of cells isolated from blood were costained using antibodies against CSV, CD45 and a nuclear stain DRAQ5. Scale indicates 10 μm. FIG. 2E: Enumeration of CSV positive CTCs from healthy, primary and metastatic patient blood specimens. Blood from the primary cancer patients was used to select threshold of detection (dashed line).\nBased on the detection of CSV in a range of cancer cell lines of both epithelial and non-epithelial origin, the inventors hypothesized that it could serve as a biomarker to detect CTC. […] From micrographs it is evident that single cell is detectable in whole blood utilizing fluorescence microscopy (FIG. 2B). […] The inventors further evaluated the sensitivity and specificity of 84-1 antibody using HLM3 and LM7 cells that are positive for 84-1 staining (Table 5)."}}, "data": [{"binder": "84-1 monoclonal antibody (antibody, V domains shown, Mouse monoclonal antibody from hybridoma 84-1, raised against rhVim with 6-His; It was detected with anti-mouse IgG; also called 84-1 mAb; 84-1 antibody) VH: QVQLKQSGPGLVQPSQSLSITCTVSGFSLTRYGVHWVRQSPGKGLEWLGVIWSGGSTDYNAAFISRLSFSKDNSKSQVFFKMNSLQANDTAIYYCARRSYYYAMDYWGQGTSVTVS VL: DVLMTQTPLSLPVSLGDQASISCRSSQSIVHRIGNTYLEWYLQKPGQSPKLLIYKVSNRFSGVPDRFSGSGSGTDFTLKISRVEAEDLGVYYCFQGSHVPLTFGAGTKLEL", "values": [{"measurement": "spot intensity relative to antibody 12-1", "setting": "[1]", "result": 2, "unit": "fold"}, {"measurement": "binding result", "setting": "[2]", "result": "binds"}, {"measurement": "binding result", "setting": "[3]", "result": "binds"}, {"measurement": "binding result", "setting": "[4]", "result": "binds"}, {"measurement": "binding result", "setting": "[5]", "result": "binds"}]}]}
